# According to PMC12828721:
# How the values were obtained:
# MSLN = experiment: BLI (Blitz); conditions: 800nM trace, read at end of association (about 120 s); parent: est. 0.63; read off a plot
# murine CD64 (FcγRI) = murine CD64 (FcγRI) (UniProt P26151); experiment: ELISA; conditions: highest concentration point (about 1e4 nM); parent: est. 1.2; read off a plot
# human CD64 (FcγRI) = human CD64 (FcγRI) (UniProt P12314); experiment: ELISA; conditions: highest concentration point (about 500 nM); parent: est. 3.4; read off a plot
# Sequence of UniProt P12314 (P12314 16-374): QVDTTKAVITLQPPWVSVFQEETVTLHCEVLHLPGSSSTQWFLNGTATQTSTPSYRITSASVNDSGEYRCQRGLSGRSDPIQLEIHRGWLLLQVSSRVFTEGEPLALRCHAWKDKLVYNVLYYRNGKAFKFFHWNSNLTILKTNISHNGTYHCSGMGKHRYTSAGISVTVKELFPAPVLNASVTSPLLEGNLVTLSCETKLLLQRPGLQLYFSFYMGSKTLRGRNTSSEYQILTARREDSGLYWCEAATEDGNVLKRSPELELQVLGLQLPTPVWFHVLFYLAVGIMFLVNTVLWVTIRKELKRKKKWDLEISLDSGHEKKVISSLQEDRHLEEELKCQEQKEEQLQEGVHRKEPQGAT
# Sequence of UniProt P26151 (P26151 25-404): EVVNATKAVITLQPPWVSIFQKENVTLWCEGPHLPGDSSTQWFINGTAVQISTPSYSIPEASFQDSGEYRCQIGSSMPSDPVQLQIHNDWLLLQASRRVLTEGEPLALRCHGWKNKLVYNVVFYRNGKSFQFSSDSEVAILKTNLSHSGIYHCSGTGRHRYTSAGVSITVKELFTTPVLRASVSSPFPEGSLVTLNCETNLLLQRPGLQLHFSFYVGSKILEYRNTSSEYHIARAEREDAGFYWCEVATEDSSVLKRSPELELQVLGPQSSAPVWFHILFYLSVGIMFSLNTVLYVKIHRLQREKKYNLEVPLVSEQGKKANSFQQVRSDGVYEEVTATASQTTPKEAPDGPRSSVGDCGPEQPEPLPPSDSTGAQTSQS
Substance,response (MSLN),response (murine CD64 (FcγRI)),response (human CD64 (FcγRI))
2A10-VH-FcWT (from UniProt P01857) G236R; L328R,0.78 nm,0.3 OD450,0.27 OD450
2A10-VH-FcWT (from UniProt P01857) L234A; L235A; P329G,0.78 nm,0.25 OD450,0.22 OD450
